According to patent publication US20220089698A1:

Experiments:
Assay in all cases: cell-based or functional assay
[1] = biological target: 152 patient-derived subtype B viruses obtained from pre-ART plasma
[2] = biological target: Env from subtype B plasma isolates (panel of 142 HIV-1 pseudotyped viruses)
[3] = biological target: HIV-1 envelope glycoprotein (Env, gp120) of virus 7015 (HIV-1)
[4] = biological target: HIV-1 envelope glycoprotein (Env, gp120) of virus VS043 (HIV-1)
[5] = biological target: HIV-1 envelope glycoprotein (Env, gp120) of virus 92US712 (HIV-1)
[6] = biological target: HIV-1 envelope glycoprotein (Env, gp120) of virus 7051 (HIV-1)
[7] = biological target: HIV-1 envelope glycoprotein (Env, gp120) of virus 1003 (HIV-1)
[8] = biological target: HIV-1 envelope glycoprotein (Env, gp120) of virus VS001 (HIV-1)
[9] = biological target: HIV-1 envelope glycoprotein (Env, gp120) of virus 92US657 (HIV-1)
[10] = biological target: HIV-1 envelope glycoprotein (Env, gp120) of virus 7595 (HIV-1)
[11] = biological target: HIV-1 envelope glycoprotein (Env, gp120) of virus 1413 (HIV-1)
[12] = biological target: HIV-1 envelope glycoprotein (Env, gp120) of virus VS026 (HIV-1)
[13] = biological target: HIV-1 envelope glycoprotein (Env, gp120) of virus 8106 (HIV-1)
[14] = biological target: HIV-1 envelope glycoprotein (Env, gp120) of virus 7467 (HIV-1)
[15] = biological target: HIV-1 envelope glycoprotein (Env, gp120) of virus 8117 (HIV-1)
[16] = biological target: HIV-1 envelope glycoprotein (Env, gp120) of virus VS044 (HIV-1)
[17] = biological target: HIV-1 envelope glycoprotein (Env, gp120) of virus 1012 (HIV-1)
[18] = biological target: HIV-1 envelope glycoprotein (Env, gp120) of virus 8320 (HIV-1)
[19] = biological target: HIV-1 envelope glycoprotein (Env, gp120) of virus 1489 (HIV-1)
[20] = biological target: HIV-1 envelope glycoprotein (Env, gp120) of virus 7103 (HIV-1)
[21] = biological target: HIV-1 envelope glycoprotein (Env, gp120) of virus VS046 (HIV-1)
[22] = biological target: HIV-1 envelope glycoprotein (Env, gp120) of virus 92HT593 (HIV-1)
[23] = biological target: HIV-1 envelope glycoprotein (Env, gp120) of virus REJO (HIV-1)
[24] = biological target: HIV-1 envelope glycoprotein (Env, gp120) of virus VS017 (HIV-1)
[25] = biological target: HIV-1 envelope glycoprotein (Env, gp120) of virus VS042 (HIV-1)
[26] = biological target: HIV-1 envelope glycoprotein (Env, gp120) of virus 8134 (HIV-1)
[27] = biological target: HIV-1 envelope glycoprotein (Env, gp120) of virus 7552 (HIV-1)
[28] = biological target: HIV-1 envelope glycoprotein (Env, gp120) of virus 7141 (HIV-1)
[29] = biological target: HIV-1 envelope glycoprotein (Env, gp120) of virus 7576 (HIV-1)
[30] = biological target: HIV-1 envelope glycoprotein (Env, gp120) of virus VS030 (HIV-1)
[31] = biological target: HIV-1 envelope glycoprotein (Env, gp120) of virus 92US727 (HIV-1)
[32] = biological target: HIV-1 envelope glycoprotein (Env, gp120) of virus 8318 (HIV-1)
[33] = biological target: HIV-1 envelope glycoprotein (Env, gp120) of virus CHO77 (HIV-1)
[34] = biological target: HIV-1 envelope glycoprotein (Env, gp120) of virus 8110 (HIV-1)
[35] = biological target: HIV-1 envelope glycoprotein (Env, gp120) of virus 302076 (HIV-1)
[36] = biological target: HIV-1 envelope glycoprotein (Env, gp120) of virus 8176 (HIV-1)
[37] = biological target: HIV-1 envelope glycoprotein (Env, gp120) of virus THRO (HIV-1)
[38] = biological target: HIV-1 envelope glycoprotein (Env, gp120) of virus VS004 (HIV-1)
[39] = biological target: HIV-1 envelope glycoprotein (Env, gp120) of virus VS039 (HIV-1)
[40] = biological target: HIV-1 envelope glycoprotein (Env, gp120) of virus VS049 (HIV-1)
[41] = biological target: HIV-1 envelope glycoprotein (Env, gp120) of virus 7714 (HIV-1)
[42] = biological target: HIV-1 envelope glycoprotein gp120 of virus 92US657 (HIV-1 subtype B, isolate 92US657)
[43] = biological target: HIV-1 envelope glycoprotein gp120 of virus CHO77 (HIV-1 subtype B, virus CHO77)
[44] = biological target: HIV-1 envelope glycoprotein gp120 of virus BaL (HIV-1 BaL (lab adapted strain, subtype B))

B1: 1.52.90-1 (antibody, V domains shown)
VH: QVQLLQSGAAVTKPGASVRVSCEASGYNIRDYFIHWWRQAPGQGLQWVGWINPKTGQPNNPRQFQGRVSLTRHASFDFDTFSFYMDLKALRSDDTAVYFCARQRSDYWDFDVWGSGTQVTVSS
VL: DIQMTQSPSSLSASVGDRATITCQANGYLNWYQQRRGKAPKLLIYDGSKLERGVPSRFSGSRWGQEYNLTISSLQPEDIATYFCQVYEFFGPGTRLDLKR
Binder B1 has a Breadth (% viruses neutralized with an IC95 ≤ 50 µg/mL) [1] of 78%, a Geomean IC95 (neutralization) [1] of 4.56 µg/mL and a Median IC95 (neutralization) [1] of 4.42 µg/mL.

B2: Antibody A-1 (antibody, human IgG1, kappa)
heavy: QVQLLQSGAAVTKPGASVRVSCEASGYNIRDYFIHWWRQAPGQGLQWVGWINPKTGQPNNPRQFQGRVSLTRHASWDFDTFSFYMDLKALRSDDTAVYFCARQRSDYWDFDVWGSGTQVTVSSASTKGPSVFPLAPSSKSTSGGTAALGCLVKDYFPEPVTVSWNSGALTSGVHTFPAVLQSSGLYSLSSVVTVPSSSLGTQTYICNVNHKPSNTKVDKKVEPKSCDKTHTCPPCPAPELLAGPDVFLFPPKPKDTLMISRTPEVTCVVVDVSHEDPEVKFNWYVDGVEVHNAKTKPREEQYNSTYRVVSVLTVLHQDWLNGKEYKCKVSNKALPLPEEKTISKAKGQPREPQVYTLPPSREEMTKNQVSLTCLVKGFYPSDIAVEWESNGQPENNYKTTPPVLDSDGSFFLYSKLTVDKSRWQQGNVFSCSVLHEALHSHYTQKSLSLSPGK
light: DIQMTQSPSSLSASVGDTVTITCQANGYLNWYQQRRGKAPKLLIYDGSKLERGVPSRFSGRRWGQEYNLTINNLQPEDIATYFCQVYEFVVPGTRLDLKRTVAAPSVFIFPPSDEQLKSGTASVVCLLNNFYPREAKVQWKVDNALQSGNSQESVTEQDSKDSTYSLSSTLTLSKADYEKHKVYACEVTHQGLSSPVTKSFNRGEC
In the case of B2, the Median IC95 (neutralization) [2] is reported as 1.09 µg/mL.

B3: Antibody 1.1.104-1 (antibody, human IgG1, kappa, V domains shown)
VH: QVQLLQSGAAVTKPGASVRVSCEASGYNIRDYFIHWWRQAPGQGLQWVGWINPKTGQPNNPRQFQGRVSLTRHASWDFDTFSFYMDLKALRSDDTAVYFCARQRSDYWDFDVWGSGTQVTVSS
VL: DIQMTQSPSSLSASVGDTATITCQANGYLNWYQQRRGKAPKLLIYDGSKLERGVPSRFSGRRWGQEYTLTINNLQPEDIATYFCQVYEFFGPGTRLDLKR
B3 showed a Virus Neutralization Potency [3] of 0.67 µg/mL, a Virus Neutralization Potency [4] of 1.49 µg/mL and a Virus Neutralization Potency [5] of 0.04 µg/mL. It also gave a Virus Neutralization Potency [6] of 1.32 µg/mL, a Virus Neutralization Potency [7] of 1.44 µg/mL and a Virus Neutralization Potency [8] of 0.34 µg/mL. The Virus Neutralization Potency [9] was 0.36 µg/mL, the Virus Neutralization Potency [10] was 8.47 µg/mL and the Virus Neutralization Potency [11] was 4.34 µg/mL. It also gave a Virus Neutralization Potency [12] of 0.19 µg/mL, a Virus Neutralization Potency [13] of 2.8 µg/mL and a Virus Neutralization Potency [14] of 0.06 µg/mL. The Virus Neutralization Potency [15] was 1.22 µg/mL, the Virus Neutralization Potency [16] was 0.28 µg/mL and the Virus Neutralization Potency [17] was 2.87 µg/mL. The Virus Neutralization Potency [18] was 4.34 µg/mL, the Virus Neutralization Potency [19] was 0.28 µg/mL and the Virus Neutralization Potency [20] was 1.82 µg/mL. It also gave a Virus Neutralization Potency [21] of 0.03 µg/mL, a Virus Neutralization Potency [22] of 0.28 µg/mL and a Virus Neutralization Potency [23] of 0.02 µg/mL. For the same binder, the Virus Neutralization Potency [24] was 2.33 µg/mL, the Virus Neutralization Potency [25] was 2.33 µg/mL and the Virus Neutralization Potency [26] was 6.07 µg/mL. The Virus Neutralization Potency [27] was > 80 µg/mL, the Virus Neutralization Potency [28] was 6.57 µg/mL and the Virus Neutralization Potency [29] was 1.1 µg/mL. The Virus Neutralization Potency [30] was 7.9 µg/mL, the Virus Neutralization Potency [31] was 10.6 µg/mL and the Virus Neutralization Potency [32] was 0.32 µg/mL. The Virus Neutralization Potency [33] was 0.03 µg/mL, the Virus Neutralization Potency [34] was 4.19 µg/mL and the Virus Neutralization Potency [35] was 0.1 µg/mL. The Virus Neutralization Potency [36] was 0.16 µg/mL, the Virus Neutralization Potency [37] was 4.27 µg/mL and the Virus Neutralization Potency [38] was 4.8 µg/mL. For the same binder, the Virus Neutralization Potency [39] was 0.1 µg/mL and the Virus Neutralization Potency [40] was > 100 µg/mL.

B4: Antibody 1.1.119-1 (antibody, human IgG1, kappa, V domains shown)
VH: QVQLLQSGAAVTKPGASVRVSCEASGYNIRDYFIHWWRQAPGQGLQWVGWINPKTGQPNNPRQFQGRVSLTRHASWDFDTFSFYMDLKALRSDDTAVYFCARQRSDYWDFDVWGSGTQVTVSS
VL: DIQMTQSPSSLSASVGDRATITCQANGYLNWYQQRRGKAPKLLIYDGSKLERGVPSRFSGSRWGQEYTLTISSLQPEDIATYFCQVYEFFGPGTRLDLKR
B4 showed a Virus Neutralization Potency [3] of 1.08 µg/mL, a Virus Neutralization Potency [4] of 0.81 µg/mL and a Virus Neutralization Potency [5] of 0.03 µg/mL. For the same binder, the Virus Neutralization Potency [6] was 1.89 µg/mL, the Virus Neutralization Potency [7] was 0.91 µg/mL and the Virus Neutralization Potency [8] was 0.37 µg/mL. For the same binder, the Virus Neutralization Potency [9] was 0.3 µg/mL, the Virus Neutralization Potency [10] was 3.07 µg/mL and the Virus Neutralization Potency [11] was 4.52 µg/mL. It also gave a Virus Neutralization Potency [12] of 0.14 µg/mL, a Virus Neutralization Potency [13] of 1.44 µg/mL and a Virus Neutralization Potency [14] of 0.19 µg/mL. It also gave a Virus Neutralization Potency [15] of 1.66 µg/mL, a Virus Neutralization Potency [16] of 0.2 µg/mL and a Virus Neutralization Potency [17] of 1.06 µg/mL. For the same binder, the Virus Neutralization Potency [18] was 1.47 µg/mL, the Virus Neutralization Potency [19] was 0.17 µg/mL and the Virus Neutralization Potency [20] was 1.16 µg/mL. The Virus Neutralization Potency [21] was 0.03 µg/mL, the Virus Neutralization Potency [22] was 0.15 µg/mL and the Virus Neutralization Potency [23] was 0.03 µg/mL. The Virus Neutralization Potency [41] was 1.93 µg/mL, the Virus Neutralization Potency [24] was 2.75 µg/mL and the Virus Neutralization Potency [25] was 2.19 µg/mL. For the same binder, the Virus Neutralization Potency [26] was 3.44 µg/mL, the Virus Neutralization Potency [27] was > 80 µg/mL and the Virus Neutralization Potency [28] was 4.98 µg/mL. For the same binder, the Virus Neutralization Potency [29] was 0.6 µg/mL, the Virus Neutralization Potency [30] was 4.96 µg/mL and the Virus Neutralization Potency [31] was 43.7 µg/mL. For the same binder, the Virus Neutralization Potency [32] was 0.42 µg/mL, the Virus Neutralization Potency [33] was 0.02 µg/mL and the Virus Neutralization Potency [34] was 2.37 µg/mL. The Virus Neutralization Potency [35] was 0.08 µg/mL, the Virus Neutralization Potency [36] was 0.27 µg/mL and the Virus Neutralization Potency [37] was 2.8 µg/mL. For the same binder, the Virus Neutralization Potency [38] was 6.02 µg/mL, the Virus Neutralization Potency [39] was 0.13 µg/mL and the Virus Neutralization Potency [40] was > 100 µg/mL.

B5: Antibody 1.36.35-1 (antibody, human IgG1, kappa, V domains shown)
VH: QVQLVQSGAEVKKPGASVRVSCKASGYNIRDYFMHWWRQAPGQGLQWVGWINPKTGQPNNPRQFQGRVTMTRHASWDFDTFSAYMDLSRLRSDDTATYFCARQRTDYWDFDVWGQGTMVTVSS
VL: DIQMTQSPSSLSASVGDRVTITCQANGYLNWYQQKPGKAPKLLIYDGSNLETGVPSRFSGSRWGQEYTLTISSLQPEDIATYFCQVYEFVGPGTNLDIKR
For B5, the Virus Neutralization Potency (IC50) [42] was 5.37 µg/mL, the Virus Neutralization Potency (IC50) [43] was 0.32 µg/mL and the Virus Neutralization Potency (IC50) [44] was > 20 µg/mL.
